Reference: patent US20250034594A1, “RNA-GUIDED GENOME RECOMBINEERING AT KILOBASE SCALE” (THE BOARD OF TRUSTEES OF THE LELAND STANFORD JUNIOR …, priority 2021, published 2025)

Columns and labels:
Assay type in all cases: cell-based
[1] = system: gene editing with dCas9; assay: Screen of 322 new SSAP proteins, gene editing activity with dCas9 (Table 5); parameters: dCas9 with SSAP activity: scale not given here
In short: (§1)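 Sequence-mined SSAPs (n=322), synthesized; editing activity screened with Cas9 or dCas9.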

[2] = system: gene editing with Cas9 and dCas9; assay: Screen of 322 new SSAP proteins, activity across all experiments (Cas9 and dCas9, Table 5); parameters: scale not given here
In short: as §1

[3] = system: gene editing with Cas9; assay: Screen of 322 new SSAP proteins, gene editing activity with Cas9 (Table 5); parameters: Cas9 with SSAP activity: scale not given here
In short: as §1

[4] = system: mammalian cells; assay: Arrayed SSAP library screening, cell viability by live cell counts via flow cytometry
Description: (§2) Each SSAP encoding plasmid was tested in duplicate, including a negative control (same plasmid encoding Flag_HA which is not expected to promote gene editing). Transfections were in 96-well plates and transfection efficiency was estimated to be 50%.
(§3) Three days after transfection, mKate positive cells and cell viability were quantified across all replicates, along with positive (original RecT SSAP) and negative (Flag-HA control protein) controls. […] At the same time, the cell viability was measured by live cell counts via flow cytometry, to help quantify the fitness effect of SSAP on mammalian cells.
(§4) SSAP proteins are identified by Uniparc deposit number and SEQ ID NO. Alignment numbers correspond to SSAPs in FIGS. 58, 59, and 60.

[5] = system: endogenous genome targets (ACTB, HSP90AA1); assay: Arrayed SSAP library screening, mKate knock-in assay (editing efficiency); conditions: average of HSP90 and ACTB, 3 days after transfection; for Editing Efficiency (Normalized, Average, two targets): fold over negative control (Flag_HA); for Editing Efficiency (Absolute, Average, two targets): percent of mKate knock-in
Description: Arrayed SSAP library screening on endogenous genome targets (ACTB. HSP90AA1) using mKate knock-in assay.
SSAP-encoding plasmids were purified and quantified.
as §2, §3, §4

Molecule	dCas9 with SSAP activity [1]	dCas9 with SSAP activity (normalized) [1]	Activity across all experiments [2]	Cas9 with SSAP activity [3]	Cas9 with SSAP activity (normalized) [3]	Cell Viability (Average, two targets) [4]	Editing Efficiency (Normalized, Average, two targets) [5]	Editing Efficiency (Absolute, Average, two targets) [5]
SSAP_172: SEQ ID NO: 341; Staphylococcus pettenkoferi (protein, listed as Staphylococcus pettenkoferi) ATQKDFKNQISQKETQQKQEVQKKKKGPRQQVSDLLDRMAPEIEKALPNHLSADRMARVAMTAVSSNPKLLECDPKSFIGAVMQSAQLGLEPNTALGEAYLVPYAGKVNFQLSYLGLINLATRSGQYKAIYAHEVYAEDEFRYQYGLHKDLIHKPVDNPKGKPIGYYAVYHLLNGGYDFVYWTTERIQKHAKKYSFAVQKGYQSPWNDEFDAMAKKTVLKDLLKYAPKSIEMNNAVRSDDKQSELSDEGVVIDVTNYDEENGEEK	−5.287	−0.724	−3.822	−2.356	−0.702	0.9046	4.239	10.4925
SSAP_190: SEQ ID NO: 359; Microbacterium laevaniformans OR221 (protein, Microbacterium laevaniformans, Microbacterium laevaniformans OR221) TDLSTVAAAAKQNPTMKDLVEAQLPAIERQLGGTMNSDAFVRAVLSEITKSPDLMQADPKTLLGGVMLAAQLRLEIGSGLGEFYLTPRKDHGRMICLPIVGFQGMVKLALRSEFVTNVQAFIVREGDDFTYGANAERGMFYDWTPKDFEEKRPMVGVVATARMKQGGTTWAYLTREQVEDRRPSYWQKTPWGSHPDEMAKKTAVRALAKYLPKATDLGRAIEADEQKVQHVKGLDEVTVTRLDDEPETVVVQETTDAWAATPVAEVQP						1.044	5.26	13.025
SSAP_192: SEQ ID NO: 361; Streptococcus pyogenes (protein, Streptococcus pyogenes) SDLSVAAAAAKTQPTMKDLVEAQLPAIERQLGGAMNSAAFVRAVLSEIGKSPDLMAADPKTLLGGVMLAAQLRLEIGSGLGEFYLTPRKERGRQICLPIIGYQGLIKLALRSEFVMNVQAFLVRQGDQFSYGANAERGMFYDWVPQDFEETRDWIGVVATARMRSGGTTWVYLTRTQVIDRRPSYWNSTPWKTNEDEMVKKTAVRALAKFLPKSTDLGRALEADEAKVQTLRGLDEVEVTRLDDEADTVVVQEQNPMSRTPEEQAEDAEAQR						1.071	5.372	13.3
SSAP_220: SEQ ID NO: 389; Amycolatopsis circi (protein, listed as Amycolatopsis circi) ISQTVTTAVAQQKDSSPAALVRKYRTDFATVLPSHIKPETWLRIATGALRRSPQLANAAKRNPSSLLVALLEAARKGLEPGTEQFYLVPRKGKNGPEVLGITGYQGEVELMYRAGAVSSVKVEVVREHDTFAYNPGEHDRPVHEIDWRADRGDLVLTYAYAVMRDGATSNVVVLSADDIAVILKKADGADSPFSPWQWNPKAMWLKSAARQLAKWVPTSAEYVRLPDVPLESLPPAKPLDLPRVDDVVDAEIVEDWPTAPDDTADGAR						0.9152	4.599	11.375
SSAP_184: SEQ ID NO: 353; Streptomyces scabiei (protein, listed as Streptomyces scabiei) DADRMARIALTLIRKNPDLATCSGESFLGALMTCSQLGFEPGSPTQEAFIVPYKGEATFQLGYQGMVTLFYQHPMASSVKVETVRENDYFEHEEGLEEKLVHRPCKTGPRGKAIAYYSVARLINGGRTFKVMYPAEIEERREKLPSKNSPAWRNSYDEMAKKTVLRNHFKALPKSAELARAMAHDGTVRTDWQPDAIDVPPEYLSEPQRPELGTGSTQ	−2.910	−0.482	−1.873	−0.836	−0.308	0.7361	5.689	14.075
SSAP_288: SEQ ID NO: 457; Clostridium thermobutyricum (protein, listed as Clostridium thermobutyricum) QSTGDIVFPQNYNYSNALKSAQLILAETVDRNKVPVLQSCSKPSICNALLDMVIQGLSPAKKQCYFVPYGGKLQLMKSYLGNIAATKRLKGVKDVFANVIYEGDVFEYKLNLNTGLIEIEKHEQKFENISKKILGAYAVVVRENQNNYVEVMNIEQIKNAWNQGAAKGNSQAHKNFAEEMAKKTVINRACKRFVNTSDDSDTLIESINRTNEYKEEDIIETTKSEVGEEIKENANTENLGLEDTEVVEAEVIENIEFEGDK						0.6836	3.832	9.4725
SSAP_210: SEQ ID NO: 379; Rufibacter latericius (protein, listed as Rufibacter latericius) SNQLQVAREQVISAQKSFKNVPNNKLDFEREAGFAMQMIQSNPFLASMDANSIRNCIVNVALTGLTLNPVLKLAYLVPRKGKLILDPSYMGLINVLVTSGAAKKIEADVVCENDFFDYEKGTNGFIKHKPSLSSRGEIIAAYAIAHLPNGEVQFEIMNREELEKVRKSSEAAKKGSSPYDGWASEMMRKAPIRRLFKYLPKHNIPDQVINTLSLDEQNNGVDFSAQKQEAFKGKAADFFEDEPANTVDADYTDMSHEEADNELAA						0.408	6.484	16.05
SSAP_235: SEQ ID NO: 404; Streptomyces sp. adm13(2018) (protein, listed as Streptomyces sp.) SQIGNEIARQSHSPAAIIEQHKADLAVVAASHVRVDTFARLAVGVLRQNEKLAAAAANNPGSLMSALMTAARLGLEPGTEQFYLRPIKRKGQLEVQGIVGYQGIVELIYNAGAAQSVVVEVVRARDEFAWTPGALDEHRPPRWPGAMKQPHHKVDWFGDRGPLVGAYAYAVMQGGAISKVVVLNRDHIARAKAKSDGADTDYSPWRTDEEAMWLKTAARRLGKWVPTSAEKRTGVIERLDTPPAPLNEIDPDEDDEPIDGELVD	−5.457	−1.152	−5.237	−5.016	−0.970	0.8847	4.251	10.53
SSAP_211: SEQ ID NO: 380; unclassified Streptomyces (protein, listed as Streptomyces sp.) SQIGNAIATRDEGPAAQIEVYRDEYAALVPSHVNADQWVRLAVGAIRGNDDLLKAAGNDIGLFLREMKTAARLGLEPGTEQFYLTPRKSKAHGGRPVIKGIVGYQGIVELIYRAGAASTVIVEAVRQNDVFRYVPGRDDRPVHEIDWFGQDRGPLVGVYAYAVMKDGAVSKVVVLNKARVMELKAKSDSKNSPYSPWNTNEEAMWLKSGVRQLAKWVPTSAEFRRDQLLAHTDTADGVIASVSAPPLPPQSAALEDLDPDDEGPIDGELLDD	−5.365	−0.904	−1.297	2.771	4.679	0.3563	5.517	13.65
SSAP_20: SEQ ID NO: 189; CK3_26380 butyrate-producing bacterium SS3/4 (protein, butyrate-producing bacterium SS3/4) ENATAVQQAESQGTQDFSAPVKHNTDFSLGIFGSSDNFLMATQMAKAFASSTIVPKEYQGNFANGLVAMDIANRLKTSPFMVMQNLDVIQGRPAWRATFLIAMINRSKKYDIELQFEEKRDKNGKPYSCTCWTTKDGRKVTGIEVTMDMAEAEGWTKKNGSKWITMPQVMLRYRAASFFSRMNCPELSNGLYTTDEVYEMADSEYKVYNLEDEVKRDLAQNANKEEFVAPPNETAPESESKGSEPLDPAVENQKSGDTPDWMKPETM	−4.179	−0.615	−2.181	−0.183	−0.399	1.174	5.982	14.85
SSAP_191: SEQ ID NO: 360 in b312 (Table 9 prints 354); Microbacterium sp. K41 (protein, listed as Microbacterium sp.) SKDLSTAAAAAKSQPTMKDLVEAQLPAIERQLGGAMNSDAFVRAVLSEIGKSPDLMNADPKTLLGGVMLAAQLRLEIGSGLGEFYLTPRKDRGRQICLPIIGYQGMIKLALRSEYVLNVQAFLVREGDDFTYGGNSERGMFYDWTPKDFEESRPWIGVVATAKMRGGGTTWVYLTRTQVIDRRPSYWASTPWKTNEDEMVKKTAVRALAKFLPKSTDLGRALEADEAKVQHLKGVDEVQVTRLDDDAETFVVQEQDPMSRTPEEQAEDEANR						1.129	4.75	11.75
